Source: paper PMC3950512

Experiments:
Assay in all cases: purified protein
Conditions in all cases: 25°C, 50 mM Tris-HCl pH 8.0, 10 mM MgCl2
[1] = system: C[N+]1(C)CCC[C@@H]1C(=O)[O-]
[2] = system: C[N+]1(C)CCC[C@@H]1C(=O)[O-]; type: biochemical, Cereibacter sphaeroides
[3] = system: C[N+]1(C)C[C@H](O)C[C@H]1C(=O)[O-]

Row | Substance | Km [1] | kcat [1] | kcat/Km [1] | Km [2] | kcat [2] | kcat/Km [2] | Km [3] | kcat [3] | kcat/Km [3]
1 | pdHpbD (Paracoccus denitrificans PD1222) | 7.3 ± 3 mM | 28 ± 6 s⁻¹ | 3800 M⁻¹ s⁻¹ |  |  |  |  |  | 
2 | rsHpbD (Cereibacter sphaeroides 2.4.1) |  |  |  | 11 ± 4 mM | 4.3 ± 0.6 s⁻¹ | 390 M⁻¹ s⁻¹ | 16 ± 7 mM | 70 ± 7 s⁻¹ | 4300 M⁻¹ s⁻¹
